Measured values taken from US20110195068A1, “PD-1 ANTAGONISTS AND METHODS OF USE THEREOF” (priority 2008, published 2011).

Key:
[1] = biological target: T1, recombinant mouse PD-1/Fc (Mus musculus, UniProt Q02242); assay: PD-1 binding ELISA, murine B7-DC-Ig; conditions: plates coated with recombinant mouse PD-1/Fc, compared with wild type, FIG. 1B
T1 construct: Fc; purchased R&D Systems
Experimental: 96-well ELISA plates were coated with 100 μL 0.75 ug/mL recombinant mouse PD-1/Fc (R&D Systems) diluted in BupH Carbonate/Bicarbonate pH 9.4 buffer (Pierce) for 2 hours and then blocked with BSA solution (Candor-Bioscience) for 90 minutes. […] Absorbance at 450 nm was read using a plate reader (Molecular Devices) and data were analyzed in SoftMax using a 4-parameter logistic fit.

[2] = biological target: T2, recombinant human PD-1/Fc (Homo sapiens, UniProt Q15116); assay: PD-1 binding ELISA, human B7-DC-Ig; conditions: plates coated with recombinant human PD-1/Fc, four different lots, FIG. 1A
T2 construct: Fc; purchased R&D Systems
Experimental: 96-well ELISA plates were coated with 100 μL 0.75 ug/mL recombinant human PD-1/Fc (R&D Systems) diluted in BupH Carbonate/Bicarbonate pH 9.4 buffer (Pierce) for 2 hours and then blocked with BSA solution (Jackson ImmunoResearch) for 90-120 minutes. […] Absorbance at 450 nm was read using a plate reader (Molecular Devices) and data were analyzed in SoftMax using a 4-parameter logistic fit.

[3] = tested on: CT26 colorectal tumor cells; conditions: CTX 100 mg/kg alone, day 10; all mice in the group
Experimental: Mouse colorectal tumor cell line, CT26, was obtained from ATCC. A master cell bank at Passage 4 was generated following ATCC guidelines.
One vial of tumor cells was thawed from the cryopreserved stocks and grown for two passages prior to inoculation.
CT26 cells were split at 1:5 dilution with 30 mL complete medium (RPMI+10% FBS, 2 mM L-Glu, and 1×P/S) for two days culture or at 1:10 dilution with 30 ml complete medium for 3 days culture.
CT26 cells were harvested by aspirating medium, rinsing the flask with 5 mL PBS, adding 5 mL trypsin, incubating at 37° C. for 2 min, and then neutralizing with 10 mL complete medium. After centrifuge at 600×g (˜1000 rpm) for 5 min, media was aspirated and the cell pellet was resuspended by pipetting with 10 ml plain RPMI. This wash step was repeated for three times.
Cell number and viability of the inoculated cells were analyzed by trypan blue dye staining with proper dilution (e.g. 1:5 dilution, 10 μL cells+40 μL trypan blue) and confirmed by NOVA cell count during the last wash step.
On Day 9, all the tumor-bearing mice were first grouped into a rat cage and randomly divided the mice to experimental groups. CTX solution was reconstituted by 1×PBS to 4 mg/mL. Mice were intraperitoneally (IP) injected with 0.5 mL of CTX solution resulting in 2 mg for a 20 gram mouse, i.e. 100 mg/kg.
The same dose was given 2 time a week for 4 weeks, total 8 doses.

[4] = tested on: more aggressive, less immunogenic tumor types; assay: Activity against more aggressive, less immunogenic tumor types; format: in vivo; conditions: single agent
P815 mastocytoma cells = assay: P815 mastocytoma tumor model; format: in vivo, DBA/2 mice
Experimental: P815 mastocytoma cells were derived from DBA/2 mice after methylcholanthrene (MCA) treatment. Injection of 5×10^4 cells SC can result in mortality approximately 35 days post tumor inoculation.
DBA/2 mice (6-10 weeks of age, females) were first challenged with 5×10^4 live P815 cells injected SC in the flank. Six days later, the mice were treated with murine B7-DC-Ig via IP injection. […] Control groups were treated with vehicle only or with murine IgG. Tumor size was measured with digital calipers every 2-3 days. Mice were euthanized and defined as dead when their tumor size reached or exceeded 1000 mm^3, according to protocols approved by the Institutional Animal Care and Use Committee (IACUC) of the American Red Cross (ARC; the site of Amplimmune's vivarium). Surviving tumor free mice were re-challenged with P815 tumor cells on Day 52.
The tumor-free mice were then re-challenged with 5×10^4 P815 cells administered to the flank opposite the primary inoculation site on Day 52.

[5] = 100 ug per injection IP, 2 times per week, up to 6 doses
[6] = 5 mice per group, 5 mg/kg IP biw 3 weeks starting Day 6

T1 sequence (Q02242 with tags, fused parts or gaps limits assumed): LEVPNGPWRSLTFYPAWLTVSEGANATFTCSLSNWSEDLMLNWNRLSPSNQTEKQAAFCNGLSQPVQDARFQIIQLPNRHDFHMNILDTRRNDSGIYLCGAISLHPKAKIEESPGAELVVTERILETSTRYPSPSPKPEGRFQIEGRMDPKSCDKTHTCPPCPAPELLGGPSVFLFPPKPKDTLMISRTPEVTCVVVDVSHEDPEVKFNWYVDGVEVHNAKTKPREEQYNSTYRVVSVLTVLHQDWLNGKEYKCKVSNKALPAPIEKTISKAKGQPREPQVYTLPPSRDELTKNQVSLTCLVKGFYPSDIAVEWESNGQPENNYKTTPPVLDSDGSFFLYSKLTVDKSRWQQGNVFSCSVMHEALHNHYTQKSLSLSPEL
T2 sequence (Q15116 with tags, fused parts or gaps limits assumed): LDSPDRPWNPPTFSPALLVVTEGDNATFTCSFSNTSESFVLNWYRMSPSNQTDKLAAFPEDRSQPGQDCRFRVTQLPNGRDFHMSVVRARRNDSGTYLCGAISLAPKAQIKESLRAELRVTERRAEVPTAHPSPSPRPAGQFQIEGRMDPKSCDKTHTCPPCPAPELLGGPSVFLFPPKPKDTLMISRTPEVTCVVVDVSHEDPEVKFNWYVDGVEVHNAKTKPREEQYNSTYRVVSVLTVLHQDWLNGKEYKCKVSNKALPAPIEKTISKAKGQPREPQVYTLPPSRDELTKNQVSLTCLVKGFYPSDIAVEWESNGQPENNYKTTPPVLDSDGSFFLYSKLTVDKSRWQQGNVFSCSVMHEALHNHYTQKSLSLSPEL

D111S: murine B7-DC-Ig with the D111S substitution
PD-1 binding activity (OD450) [1]: reduced binding to PD-1

K113S: murine B7-DC-Ig with the K113S substitution
PD-1 binding activity (OD450) [1]: reduced binding to PD-1

B7-DC-Ig: human PD-L2 (B7-DC) extracellular domain fused to hinge, CH2 and CH3 of human immunoglobulin Cγ1 chain (SEQ ID NO:56/57)
PD-1 binding activity (OD450) [2]: binding

O=P1(N(CCCl)CCCl)NCCCO1 (stereo not shown) [CTX, cyclophosphamide]
outcome of mice with established tumors [3]: died as a result of tumor growth or were euthanized

B1: Murine B7-DC-Ig: murine PD-L2 (B7-DC) extracellular domain fused to hinge, CH2 and CH3 of murine immunoglobulin Cγ2a chain (SEQ ID NO:53/54) (protein, listed as Mus musculus)
chain: LFTVTAPKEVYTVDVGSSVSLECDFDRRECTELEGIRASLQKVENDTSLQSERATLLEEQLPLGKALFHIPSVQVRDSGQYRCLVICGAAWDYKYLTVKVKASYMRIDTRILEVPGTGEVQLTCQARGYPLAEVSWQNVSVPANTSHIRTPEGLYQVTSVLRLKPQPSRNFSCMFWNAHMKELTSAIIDPLSRMEPKVPRTWEPRGPTIKPCPPCKCPAPNLLGGPSVFIFPPKIKDVLMISLSPIVTCVVVDVSEDDPDVQISWFVNNVEVHTAQTQTHREDYNSTLRVVSALPIQHQDWMSGKEFKCKVNNKDLPAPIERTISKPKGSVRAPQVYVLPPPEEEMTKKQVTLTCMVTDFMPEDIYVEWTNNGKTELNYKNTEPVLDSDGSYFMYSKLRVEKKNWVERNSYSCSVVHEGLHNHHTTKSFSRTPGK
anti-tumor activity alone against more aggressive, less immunogenic tumor types [4]: minimal activity | mice in which tumor was eradicated (P815 mastocytoma cells; [5]): two | mice responded to treatment (P815 mastocytoma cells; [5]): Four of 5 | mice with delayed tumor growth during treatment (P815 mastocytoma cells; [5]): two | # Tumor <500 mm^3 (P815 mastocytoma cells; [6]): 2 | # Tumor free (P815 mastocytoma cells; [6]): 2 | # Tumor ≧500 mm^3 (P815 mastocytoma cells; [6]): 1 | outcome of re-challenge of tumor-free mice (P815 mastocytoma cells; re-challenged with 5×10^4 P815 cells on Day 52, opposite flank, through 74 days after primary inoculation): remained tumor free | anti-tumor activity alone in the P815 model (P815 mastocytoma cells; single agent): effective
